Experimental data as given in patent US20110052585A1 (Sanofi, published 2011).

Target: T1, rhIL-23 (human, UniProt Q9NPF7 20-189; P29460 23-328)
T1 construct: Recombinant human IL-23 coated on immunoassay plates; also called IL-23 ligand
T1 sequence (looked up) 1: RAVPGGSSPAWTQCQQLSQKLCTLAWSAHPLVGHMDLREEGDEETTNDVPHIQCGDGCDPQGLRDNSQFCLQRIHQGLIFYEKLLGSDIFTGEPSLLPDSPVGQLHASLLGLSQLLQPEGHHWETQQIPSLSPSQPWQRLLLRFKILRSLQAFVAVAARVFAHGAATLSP
T1 sequence (looked up) 2: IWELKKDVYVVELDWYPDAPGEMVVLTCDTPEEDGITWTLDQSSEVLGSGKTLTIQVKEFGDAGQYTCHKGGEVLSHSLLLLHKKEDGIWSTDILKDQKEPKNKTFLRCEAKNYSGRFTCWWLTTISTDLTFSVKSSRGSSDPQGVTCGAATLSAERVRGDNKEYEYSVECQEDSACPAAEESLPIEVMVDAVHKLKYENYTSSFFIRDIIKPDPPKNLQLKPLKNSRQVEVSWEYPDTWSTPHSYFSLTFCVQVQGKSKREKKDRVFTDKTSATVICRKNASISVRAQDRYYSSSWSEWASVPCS
Test: ELISA, ligand coated on plate, conditioned medium with soluble receptor
Protocol: Ligand Binding Assays: Conditioned media containing […] were generated in transfected or virally-infected 293 cells. Receptor concentrations in collected media were determined by ELISA and Western blot. Ligand binding assays were performed on immunoassay plates coated with target ligand rhIL-17 or rhIL-23. Typically conditioned media containing serial dilutions of soluble receptor were incubated with immobilized ligand 1-2 hours at room temperature. Unbound ligand was washed away and bound protein was detected and quantified with receptor-specific detection antibodies, as is performed in an ELISA.
In order to test the ability of the soluble IL-17 and IL-23 receptor fusions to bind to their respective ligands, the following experiments were conducted. In one experiment, the ability of the soluble receptors to bind immobilized ligands was explored. Conditioned media for each receptor was generated from Ad-infected A459 cells and quantified by ELISA as described. Binding was measured on ELISA plates pre-coated with IL-23 or IL-17 ligand. Relative binding was compared to purchased receptor/Fc chimeras (R&D Systems, Minneapolis, Minn.). The control IL-17R/Fc from R&D contains human IL-17R(Met1-Trp320) fused to IEGRMD and human IgG1(Pro100-Lys330). […]

B1: sIL23R-9gly-CH3 (Fc fusion)
chain: GITNINCSGHIWVEPATIFKMGMNISIYCQAAIKNCQPRKLHFYKNGIKERFQITRINKTTARLWYKNFLEPHASMYCTAECPKHFQETLICGKDISSGYPPDIPDEVTCVIYEYSGNMTCTWNAGKLTYIDTKYVVHVKSLETEEEQQYLTSSYINISTDSLQGGKKYLVWVQAANALGMEESKQLQIHLDDIVIPSAAVISRAETINATVPKTIIYWDSQTTIEKVSCEMRYKATTNQTWNVKEFDTNFTYVQQSEFYLEPNIKYVFQVRCQETGKRYWQPWSSPFFHKTPETVPQVTSKAFQHDTWNSGLTVASISTGHLTGGGGGGGGGQPREPQVYTLPPSRDELTKNQVSLTCLVKGFYPSDIAVEWESNGQPENNYKTTPPVLDSDGSFFLYSKLTVDKSRWQQGNVFSCSVMHEALHNHYTQKSLSLSPGK
notes: Fusion to the CH3 domain of human IgG1 only, with no hinge or CH2; It was tested as conditioned medium from adenovirus-infected cells; also called hIL-23R-9gly-CH3 chimera; soluble IL-23r
- binding result: binds
